The text below walks through data of a protein production outcome set (Wang et al. 2014).
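Note: failed if final PepcDB status was selected cloned or expressed and not failed if soluble or beyond.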

The nature of the series: label from the status in PepcDB records.
For “MISQASRFAPDQPPKLSCEYLTERVRALFGPHPFASQMSGDQVASLLPEYLAMSQAFPYLQAGSQRDLIFDAMHQNRDIGRDIELTSVVANFICWDETGGHGGILRGGKAALPDILLTENFHSNLLRKDAARLLGRAIRPNYSDRTKQYLHSLYAGLSSKDPLVRCAYMVAFELHAADMIQSLWTTLVKTFKARPDDLEYFRGHVGGEDPAEKYHGEMTGRLIGELVQPGLNDRFLNEFGRAYRLSVQWCRDLLGTAARTGDDHSEMQHHGRCHCGAIKFYVNAPRELSAVRCNCSICQMSGFVHLLVPGDKLRIECGEEFLTTYQFNKNIARHTFCRLCGVKPFYRPRSNPSGYSVNIRCLDRKTIEHLRISEFDGAHWEQAFLSMQQDPESCFEDQRSELEWRAQ”, the protein production result was “failed”.
For the sequence “MLFKRPDTETLYFALVNKDPAYEGVAYVCVTSTKIFCRFTCTARKPKIENCRFRETITECLEAGFRPCKRCKPMLSYGTPDGTVTALLTALENEPARRWREEDVVALGHDPSTVRRSFKRRFGMSFLEIARLRRVGDAAESLASGEAVIGAQIDAGYESGSGFRSAINQLFGTSPAAMKGRGFLKGDWIDTPIGPMLAVADDHALHLLEFADRPALPAELKRLKARTGADMVLGRTAVTGQIAAELAAYFAGRSGSFETRLAGHGTPFERDVWRNLREIPAGEIVSYSSLATAMERPTAVRAVARANGANQLAIVVPCHRVLGADGSLTGYGGGLWRKKWLIEHERRMARGLEHHHHHH”, the protein production entry is recorded as “not failed”.
The entry for “MSRNRVMSIDFQQLPHAGIRSLIPYVPGKSIEELAKEKGITDIIKLASNENPLGCSPLALSVIQTMSSHYIATYPSPWNHPLMSKLASYLKVKPEQLFLSNGSDYLFNILLNCFALHTDRHILTHDYAFSTYAIQANSLQIPINSVPIGHNWEVNITDIVNACNQQTGIIFIANPNNPTGVLIQQEEIKYLLEQIPKSTLLVLDEAYYEFAASQLTVNSLDWLEEHPNLVVTRTFSKIYGMAGLRLGYAIANPSIINILKRVQLPFIVNQVALAAAYAAIDDDDFIQSSLKMNNEGMLQLQAGFNELNIKYLPSSCNFLTFDCEEDSMALYNYLLDNGIIVRPLHAYKMNNFIRVTIGTKEQNSRFLTALKNFYL” is “failed”; for “MAFAPRYSSLIPCALALAASLAGTPDGARAQAPDGPKHPLEKPLAHPPAPPEKLPRVPTDRTKGLDFLFGALKAAPDETSAKHVEGRIWALWSQTTSDTTALLMARSKVAMDAKQFDVALKLLDAVVKLKPDYVEGWNRRATIYYLQNDYMHSLEDIEQVLAREPRHFGALAGLGMIMQELGDDKRALDAFRRALALNPHLDKVPDLVKTLSEKVEGRDI” it is “failed”; for “MNSKAMQALIFLGFLATSCLAQAPAPAPTTVTPPPTALPPVTAETPSPIASPPVPVNEPTPAPTTSPTTSPVASPPQTDAPAPGPSAGLTPTSSPAPGPDGAADAPSAAWANKAFLVGTAVAGALYAVVLA” it is “failed”.
The value for “MRKEIRFSGFGGQGIILAGVILGRAASLYAGKEAVQTQSYGPEARGGASKSEVVISEIEIDFPKVIQPDILISMSQPAFDKYGYDLKENARVIVDRDLVNLPEGYEEKYEVYKVPFTEIANKEVGLGIVANIVMLGALTKLSGLVPKEEVEKALLDSIPKGTEKKNLMAFEKGYEYL” was “not failed”; that for “MQPTGNQIQQNQQQQQQLIMRVPKQEVSVSGAARRYVQQAPPNRPPRQNHQNGAIGGKKSSVTIQEVPNNAYLETLNKSGNNKVDDDKLPVFLIKLWNIVEDPNLQSIVHWDDSGASFHISDPYLFGRNVLPHFFKHNNMNSMVRQLNMYGFRKMTPLSQGGLTRTESDQDHLEFSHPCFVQGRPELLSQIKRKQSARTVEDKQVNEQTQQNLEVVMAEMRAMREKAKNMEDKMNKLTKENRDMWTQMGSMRQQHARQQQYFKKLLHFLVSVMQPG” was “failed”.
The entry for “MPPGTTLQGGKYRLEQVLGQGGFGITYLGSQTQLGARVAIKELFPSGSTRQSGQYVLPPAGTDPAGWAQAKQDFTAEGRTVARFNHPDIVRVMDLFEENGTAYLVMEFLEGQTLGSAIEKRGPLPPDEVVNIAKRVLGALSVVHSAGMLHRDIKPDNIYLDKAGRTVLIDFGSARTFAAGQTVSHTRLVTPGYAPLEQYSGSAKFGPYTDIYALGATLYHALTGHPPTPATDRTMGTPLAPLPPNTPPALREAIERSLAIKINERPQSTQEVLALLNQVSVAPQSAPAAPAPRPTPPQRNQTFPPAPQPTPQRQPQRPPQPVPQPPAQRRRGPGCGCLFPLLLLGGLALYGMNVLGPLLSPSQTETTTTSEQTQPEPPAQTPTTPTEDPTIPQAPGTTDSGQDWQSGDSIDLGLPGSNGETPAQTDNTATPETTTQGNAGTETNPTTTPETNTSTAPTSGELVVTAPNVTLRSAADAAANSLGTLAAGSTVQILQTQDGWYEVQTTSGQRGWVGTDAALPPVSAEALKALQTAAGQGGDVQLSPGVYRLQEPLVLSQDAHLTGAGRDRTWITSAAGNAVLTTRGNVSLQGVTVGWTGQTPGGALLAEGGTVTLRDARLTGGVRDETRNESGSGLQLSQGAQGDVQGSDLVGNAYGASVSDTAQLKLKDSTLSDNSLGGAIFLDSSGGEVRGSTLERNGGDGLTVRHTAAPVIVDSELRDNGERGLSVEGQAKPTVKRVTASGNTLQGIGVQDDAQPQLSNNKLTGNGQEGLTYADRAGGRASENELSGNQVGIAVQGSAAPELRTNIIRDSRDAGLSYAGQAGGTARGNTITGSAKPGISLWGEAQPTLSSNVIQGGAQSGIVFAEHAGGTLDSNEVLGNALSGLVVRDTAAPEVRGNTFQDNGKAAMVYEGEAGGRVSGNTCQGNGSDVIELHLTSVLAGPDLSGASCAVQTQGNW” is “failed”; for “MPGAVDFKERISRQRPHDRETYGHAGNTDLQDIVYQLESDRGRIVNSAAVRRLQQKTQVFPLERNAAVRSRLTHSLEVQQTGRFIVRTLFRQLGPRAAEVGLDGLEGALESLVEMACLMHDVGNPPFGHFGEYAINDWFERNLDALFERRIPPGQGDGLLQQRMLTDLKHFEGNAQAIRLVVKLLRLNLTYTQTAGLLKYVRPAYEPKPDKAAANHYLNKKPGFYLSEEAFVDELRRVLGMRPGTRHPVAYIMEAADDISYCLADIEDSVEKGILDIRQLADLLVKKFAVHHSPDAPIPGDADNMSFQRMVDYSLEKAEREPINKVSEFFIRLRVKMIHPLVQHAAQQFIDNFEAVHAGTLGRALMEDGSLPHAIVQTFKDVAMEWVFCHPEVETLELQGYRIIQGLLDFYAPLLRLPAEEFQALAEGRQAAAPHPQLLVRRLPSQQIKAYLEAMKGVAEDPLQRQWEFYHRCRMLQDFVSGMTDQHAQDEYRALSA” it is “failed”.
On to “MWTTNIIKTPRGKFEYFLKGEGPPLCVTHLYSEYNDNGNTFANPFTDHYSVYLVNLKGCGNSDSAKNDSEYSMTETIKDLEAIREALYINKWGFAGHSAGGMLALVYATEAQESLTKIIVGGAAASKEYASHKDSIYCSKNVKFNRIVSIMNALNDDSTVQEERKALSREWALMSFYSEEKLEEALKLPNSGKTVGNRLNYFRQVEYKDYDVRQKLKFVKIPSFIYCGKHDVQCPYIFSCEIANLIPNATLTKFEESNHNPFVEEIDKFNQFVNDTL”, for which the protein production result is reported as “not failed”.
The value for “MKRLSITVRLTLLFILLLSVAGAGIVWTLYNGLASELKWRDDTTLINRTAQIKQLLIDGVNPDTLPVYFNRMMDVSQDILIIHGDSINKIVNRTNVSDGMLNNIPASETISAAGIYRSIINDTEIDALRINIDEVSPSLTVTVAKLASARHNMLEQYKINSIIICIVAIVLCSVLSPLLIRTGLREIKKLSGVTEALNYNDSREPVEVSALPRELKPLGQALNKMHHALVKDFERLSQFADDLAHELRTPINALLGQNQVTLSQTRSIAEYQKTIAGNIEELENISRLTENILFLARADKNNVLVKLDSLSLNKEVENLLDYLEYLSDEKEICFKVECNQQIFADKILLQRMLSNLIVNAIRYSPEKSRIHITSFLDTNSYLNIDIASPGTKINEPEKLFRRFWRGDNSRHSVGQGLGLSLVKAIAELHGGSATYHYLNKHNVFRITLPQRN” was “failed”; that for “MWNATPSEEPGFNLTLADLDWDASPGNDSLGDELLQLFPAPLLAGVTATCVALFVVGIAGNLLTMLVVSRFRELRTTTNLYLSSMAFSDLLIFLCMPLDLVRLWQYRPWNFGDLLCKLFQFVSESCTYATVLTITALSVERYFAICFPLRAKVVVTKGRVKLVIFVIWAVAFCSAGPIFVLVGVEHENGTDPWDTNECRPTEFAVRSGLLTVMVWVSSIFFFLPVFCLTVLYSLIGRKLWRRRRGDAVVGASLRDQNHKQTVKMLAVVVFAFILCWLPFHVGRYLFSKSFEPGSLEIAQISQYCNLVSFVLFYLSAAINPILYNIMSKKYRVAVFRLLGFEPFSQRKLSTLKDESSRAWTESSINT” was “failed”; that for “MTDVFKDMAFQLKTERLDLNMWEESDAVWLRKLIGERGVEMPTIESVRSSLIEMRKKAIENGISLLTIRRRDEGDFIGYCGLIIGRATLEEPEIAYELFKSAHRKGYATEAASAVLEAAIATGRHRLWSTVGAWNTASFRVLEKLGFHRHHSTYGERGEIVWNVRDL” was “failed”.
The value for “MLTLLSPCTLPVIPLLFASVRGRRGQLAIMLAGMALMFGAVSWLVTVASGWVVNLTLAGRGLALAFFALVGLSLLSQRVAQRLTSPLVALGNQLNDASSRQRGWIGSLLAGLAVGLLWAPCAGPVLGAILSLGFVHPGQATTGGLLLAYGSGGALMLFLLGWCGAALIARLRRGQAFGERLRRLAGGAMLASVALIASGGDRYLQSAGGLSQALEQRLAARLPQPEQKTSLQPIAAPQPSSAMPSLAGGSAWINSPALTPERLKGKVVLVDFWTRECINCQHTLPYVRDWANKYRAAGLVVIGVHTPEYPWERSLPLLRQAVKDWRITYPVVADNEYAIWNAFGNQYWPAHYIFDARGQLRYTAFGEGDYARQEQVIQQLLQESKA” was “failed”.
For “METPYHQRWLAFPDAVSSYRPLESRLAGTSRATADNRTPCTGRLGTPRVFLMATDDVSKAYSSPTFDAEALLGTVISAEDPDRVLIEPWATGVDGVILDVGSGTGRWTGHLASLGHQIEGLEPATRLVELARQTHPSVTFHHGTITDLSDSPKRWAGLLAWYSLIHMGPGELPDALVALRMAVEDGGGLLMSFFSGPSLEPMYHPVATAYRWPLPELAQALETAGFQVTSSHWDPRFPHAYLTAEASLEHHHHHH”, the protein production entry was “not failed”.
The value for “MSNSSQYYTRTAQFLHWIMAIIFISAWIIGFYSGNFLNYETDGSFKGDVITLHKNIATTIIFLVMIRIFWRYTHPTPELPATMSPLMKKLAHLGHLALYVILIALPISGCFYSWSAGHPAPVLYLFNIPQLIGENPEIMAIAKPVHVYLSWFAGLMVAGHILAALKHHFIDKDNVLKSMIKQSR” was “failed”; that for “MSLSQEMIKKWLDEEGFLRMEVPDENARFHYVVNYPEDHVIDIIQPAGKDDMILIACATSVSPEHQAGIRALSMEKRTEFIWKVRFTLNRFGVDFQLDHPENVLNSYLVTDEIFFDGLSKDRLISSIKNVFRAKLQVMWMIQERFGEERPEHDSMYVEGHHHHHH” was “not failed”.
For “MDNKKLFVFIKYFTLVFMIVGIIFGGKEFNAQNITLMLILIINHQLRTFSLNKYIHKIISFILEIVLVVICNFWISGYLFTYLILLAIDANVMFKKFLASTFNVVIILIGVYFSFNYSLNYKIMNLGVSIIIIAVFYFNKYENEKKIEAQDLYDRLRISEEKLKKANRDLEMYASSVEELTLLRERNRISREIHDSVGHSLSTMVIQLGAIEKIIRKAPEKAELLTKNLRKFTQKSLDEVRAAVRAIKPKEFEEYEGILSIEELISNFKKMANIDVRLAFTKEKWSLNSDQSFVLYRIVQEFLSNSARHGRASRVDVIMAFSEKNLLVTLKDNGQGCQSIIEGVGMKSMRERVKELGGYFEYKTAPYEGFTVKIELAKREKLKVYSGGENNG”, the protein production entry is “failed”.
